# Reference: US20220204643A1 (published 2022)
# B1: TMEL1027 (antibody, V domains shown)
# VH: QVQLVQSGAEVKKPGASVKVSCKASGYTFTVYYMHWVRQAPGQGLEWMGRINPNSGGTNYAQKFQGRVTMTRDTSISTAYMELSRLTSDDTAVYYCARVVVVGTDYGMDVWGQGTTVTVSS
# VL: VSSELTQDPAVSVALGQTVRITCQGDSLRSYYASWYQQRPGQAPVLVIYGKNNRPSGIPDRFSGSSSGNTASLTITGAQAEDEADYYCNSRDSSGNHVFGTGTKVTVLG
# notes: detected with anti-human IgG Fc
# B2: TMEL1017 (antibody, V domains shown)
# VH: EVQLVESGGGLVKPGGSLRLSCAASGFTFSNYNMNWVRQAPGKGLEWVSSISSSSSYIYYADSVKGRFTISRDNAKNSLYLQMNSLRAEDTAVYYCARDALDFDWLLSAGGFDYWGQGTLVTVSS
# VL: ASALTQPASVSGSPGQSITISCTGTSSDVGGYNYVSWYQQHPGKAPKLMIYEVSNRPSGVSNRFSGSKSGNTASLTISGLQAEDEADYYCSSYTSSSTLVFGGGTKLTVLG
# notes: as for B1
# B3: TMEL1020 (antibody, V domains shown)
# VH: QVHLVQSGAEVKKPGASVKVSCKASGYTFTNYFIHWVRQAPGQGPEWMGVINPSFGSTTYAQKLQGRVTMTRETSTSTVYMELSSLRSEDTAVYYCARESLDSASYSTIAHWGQGTLVTVSS
# VL: EIVLAQSPGTLYLSPGERATLSCRASQSVRGNYLAWYQQRPGQAPRLLIYGASSRATGIPDRFGGSGSGTDFTLTITRLLPEDFAVYYCHQYGSSPRTFGQGTKVEIKR
# notes: as for B1
# B4: TMEL1028 (antibody, V domains shown)
# VH: QVQLVQSGAEVKKPGASVKVSCKASGYTFTSYGISWVRQAPGQGLEWMGWISAYNGNTNYAQKLQGRVTMTTDTSTSTAYMELRSLTSDDTAVYYCARDQGLERANWFDPWGQGTLVTVSS
# VL: not shown
# notes: as for B1
# B5: TMEL1030 (antibody, V domains shown)
# VH: QVQLQESGPGLVKPSGTLSLTCAVSGGSISSSNCWSWVRQPPGKGLEWLGEICHSGSTSYNPSLKSRVTISVDKSKNQFSLKLRSVTAADTAVYYCARESPLTVVFDYWGQGTLVTVSS
# VL: DIQMTQSPSSLSASVGDRVTITCRASQGIRNDLGWFQQKPGKAPKRLIYAASNLPSGVSSRFSGSGSGTEFTLTISSLQPEDFATYYCLQHNNYPLTFGQGTKVEFKR
# notes: as for B1
# B6: TLUS1006 (antibody, V domains shown)
# VH: PVHLVQSGAEVRKPGSSVKVSCMASGGSFNTYAVNWVRQAPGQGLEWMGGIIPVFGTTNYAPRFQGRVTITADESTSTVYMELTSLTSEDTAVYYCARDRDSGYERNCLDPWGQGTLVTVSS
# VL: DIVMTQSPDSLAVTLGERATINCRSSQTVLYDSNNKNYLAWYQQKPGQPPKLLIYWASIRESGVPDRFSGSGSGTDFTLTINTLQAEDVAIYFCQQYFTTPRTFGQGTKVEIKR
# notes: as for B1
# B7: TMEL1018 (antibody, V domains shown)
# VH: PLQLQESGPGLVKPSETLSLTCTVSGGSISSSSYYWGWIRQPPGKGLEWIGSIYYSGSTYYNPSLKSRVTISVDTSKNQFSLKLSSVTAADTAVYSCARLLVGGAFDIWGQGTMVTVSS
# VL: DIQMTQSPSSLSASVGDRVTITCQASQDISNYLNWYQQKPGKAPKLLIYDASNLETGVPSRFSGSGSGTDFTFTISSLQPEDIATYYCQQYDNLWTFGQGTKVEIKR
# notes: as for B1
# What was measured:
# [1] = target: T1, microtubule associated scaffold protein 2, transcript variant 2 (human, UniProt Q5JR59 1040-1369)
# T1 construct: HuProt array protein, full-length recombinant from yeast; also called MTUS2
# T1 sequence: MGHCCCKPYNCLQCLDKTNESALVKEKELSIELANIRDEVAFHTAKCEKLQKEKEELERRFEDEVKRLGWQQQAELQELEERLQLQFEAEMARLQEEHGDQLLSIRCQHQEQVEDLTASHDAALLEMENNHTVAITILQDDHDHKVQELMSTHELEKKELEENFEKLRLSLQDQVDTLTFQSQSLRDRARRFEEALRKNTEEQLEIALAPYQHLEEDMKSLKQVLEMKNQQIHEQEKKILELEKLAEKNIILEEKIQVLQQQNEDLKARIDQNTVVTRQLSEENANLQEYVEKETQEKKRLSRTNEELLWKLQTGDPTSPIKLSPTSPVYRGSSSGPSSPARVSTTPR
# [2] = target: T2, RAN binding protein 10, transcript variant 1 (human, UniProt Q6VN20 2-620)
# T2 construct: HuProt array protein, full-length recombinant from yeast; also called RANBP10
# T2 sequence (Q6VN20 2-620 limits assumed, change not shown): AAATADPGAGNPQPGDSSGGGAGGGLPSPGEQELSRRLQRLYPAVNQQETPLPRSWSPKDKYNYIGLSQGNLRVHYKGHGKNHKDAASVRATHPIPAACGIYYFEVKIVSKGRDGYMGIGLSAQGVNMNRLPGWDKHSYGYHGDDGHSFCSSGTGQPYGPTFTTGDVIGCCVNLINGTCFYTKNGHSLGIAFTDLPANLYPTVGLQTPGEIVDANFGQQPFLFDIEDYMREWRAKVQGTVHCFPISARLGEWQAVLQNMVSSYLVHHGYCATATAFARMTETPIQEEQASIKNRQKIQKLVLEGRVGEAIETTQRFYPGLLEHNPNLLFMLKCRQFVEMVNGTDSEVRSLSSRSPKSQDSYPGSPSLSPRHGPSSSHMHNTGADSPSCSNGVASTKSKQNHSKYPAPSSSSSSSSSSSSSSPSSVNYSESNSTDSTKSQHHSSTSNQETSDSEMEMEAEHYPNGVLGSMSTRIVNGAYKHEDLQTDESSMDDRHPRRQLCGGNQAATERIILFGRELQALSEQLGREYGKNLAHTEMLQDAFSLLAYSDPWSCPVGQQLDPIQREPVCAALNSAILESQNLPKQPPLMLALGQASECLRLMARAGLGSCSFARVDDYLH
# [3] = target: T3, anterior gradient 3, protein disulphide isomerase family member (human, UniProt Q8TD06 22-166)
# T3 construct: HuProt array protein, full-length recombinant from yeast; also called AGR3
# T3 sequence: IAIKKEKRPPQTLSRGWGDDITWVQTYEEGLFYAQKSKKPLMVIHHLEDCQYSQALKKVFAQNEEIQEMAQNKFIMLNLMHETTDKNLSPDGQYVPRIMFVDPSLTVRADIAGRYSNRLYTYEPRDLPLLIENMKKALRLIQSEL
# zinc finger protein 296 = target: T4, zinc finger protein 296 (human, UniProt Q8WUU4 1-475)
# T4 construct: HuProt array protein, full-length recombinant from yeast; also called ZNF296
# T4 sequence: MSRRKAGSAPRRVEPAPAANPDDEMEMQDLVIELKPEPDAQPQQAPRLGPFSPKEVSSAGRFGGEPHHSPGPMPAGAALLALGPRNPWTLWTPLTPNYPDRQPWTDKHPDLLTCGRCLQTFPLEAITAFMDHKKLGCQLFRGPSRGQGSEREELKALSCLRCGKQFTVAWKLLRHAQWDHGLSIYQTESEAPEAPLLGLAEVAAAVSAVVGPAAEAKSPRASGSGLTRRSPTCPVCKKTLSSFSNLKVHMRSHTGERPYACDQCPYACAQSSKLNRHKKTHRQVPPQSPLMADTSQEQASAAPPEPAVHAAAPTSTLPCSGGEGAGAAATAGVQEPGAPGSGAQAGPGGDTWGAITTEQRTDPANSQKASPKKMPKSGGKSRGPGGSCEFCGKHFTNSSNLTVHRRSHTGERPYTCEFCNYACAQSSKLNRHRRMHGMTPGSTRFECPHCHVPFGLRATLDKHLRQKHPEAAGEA
# [4] = target: phosphodiesterase 5A, transcript variant 1 (human, UniProt O76074 1-875)
# Bcl2 like 1 = target: T5, Bcl2 like 1 (human, UniProt Q07817 1-233)
# T5 construct: HuProt array protein, full-length recombinant from yeast; also called BCL2L1
# T5 sequence (Q07817 whole entry): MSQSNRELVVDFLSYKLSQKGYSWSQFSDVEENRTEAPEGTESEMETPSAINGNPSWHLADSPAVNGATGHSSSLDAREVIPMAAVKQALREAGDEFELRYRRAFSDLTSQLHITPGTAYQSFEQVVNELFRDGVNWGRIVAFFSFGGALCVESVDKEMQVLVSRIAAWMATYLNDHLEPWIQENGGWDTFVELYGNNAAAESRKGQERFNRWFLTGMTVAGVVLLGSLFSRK
# [5] = target: T6, hydroxymethylbilane synthase, transcript variant X3 (human, UniProt P08397 18-361)
# T6 construct: HuProt array protein, full-length recombinant from yeast; also called HMBS
# T6 sequence: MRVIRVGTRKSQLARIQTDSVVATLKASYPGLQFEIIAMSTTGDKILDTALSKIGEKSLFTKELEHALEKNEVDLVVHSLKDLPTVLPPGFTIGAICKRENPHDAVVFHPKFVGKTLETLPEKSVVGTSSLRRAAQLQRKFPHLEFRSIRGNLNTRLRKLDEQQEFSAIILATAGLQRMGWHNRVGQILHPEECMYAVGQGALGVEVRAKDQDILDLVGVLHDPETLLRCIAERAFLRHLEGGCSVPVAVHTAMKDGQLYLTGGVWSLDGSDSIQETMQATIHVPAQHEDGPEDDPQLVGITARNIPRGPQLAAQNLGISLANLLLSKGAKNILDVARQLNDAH
# [6] = target: T7, hook microtubule tethering protein 2, transcript variant 2 (human, UniProt Q96ED9 1-719)
# T7 construct: HuProt array protein, full-length recombinant from yeast; also called HOOK2
# T7 sequence: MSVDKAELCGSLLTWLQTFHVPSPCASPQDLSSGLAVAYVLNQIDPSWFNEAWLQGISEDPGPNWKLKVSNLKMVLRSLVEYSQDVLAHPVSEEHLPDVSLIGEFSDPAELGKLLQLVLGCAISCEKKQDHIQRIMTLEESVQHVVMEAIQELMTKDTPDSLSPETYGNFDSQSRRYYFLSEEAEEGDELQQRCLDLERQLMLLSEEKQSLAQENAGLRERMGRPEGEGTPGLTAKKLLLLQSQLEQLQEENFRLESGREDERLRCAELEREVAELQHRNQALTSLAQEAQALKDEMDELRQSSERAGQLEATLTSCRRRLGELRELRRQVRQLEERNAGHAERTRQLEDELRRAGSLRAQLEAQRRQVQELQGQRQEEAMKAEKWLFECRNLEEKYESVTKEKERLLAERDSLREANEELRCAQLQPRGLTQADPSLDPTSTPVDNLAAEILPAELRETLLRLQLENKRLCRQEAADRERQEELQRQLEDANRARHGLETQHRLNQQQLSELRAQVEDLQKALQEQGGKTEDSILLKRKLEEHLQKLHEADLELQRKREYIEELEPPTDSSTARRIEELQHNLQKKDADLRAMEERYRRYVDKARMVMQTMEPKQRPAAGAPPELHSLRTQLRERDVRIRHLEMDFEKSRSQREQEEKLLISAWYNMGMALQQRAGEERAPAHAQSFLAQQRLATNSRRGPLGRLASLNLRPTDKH
# Ubiquilin 3 = target: T8, Ubiquilin 3 (human, UniProt Q9H347 1-655)
# T8 construct: HuProt array protein, full-length recombinant from yeast; also called UBQLN3
# T8 sequence: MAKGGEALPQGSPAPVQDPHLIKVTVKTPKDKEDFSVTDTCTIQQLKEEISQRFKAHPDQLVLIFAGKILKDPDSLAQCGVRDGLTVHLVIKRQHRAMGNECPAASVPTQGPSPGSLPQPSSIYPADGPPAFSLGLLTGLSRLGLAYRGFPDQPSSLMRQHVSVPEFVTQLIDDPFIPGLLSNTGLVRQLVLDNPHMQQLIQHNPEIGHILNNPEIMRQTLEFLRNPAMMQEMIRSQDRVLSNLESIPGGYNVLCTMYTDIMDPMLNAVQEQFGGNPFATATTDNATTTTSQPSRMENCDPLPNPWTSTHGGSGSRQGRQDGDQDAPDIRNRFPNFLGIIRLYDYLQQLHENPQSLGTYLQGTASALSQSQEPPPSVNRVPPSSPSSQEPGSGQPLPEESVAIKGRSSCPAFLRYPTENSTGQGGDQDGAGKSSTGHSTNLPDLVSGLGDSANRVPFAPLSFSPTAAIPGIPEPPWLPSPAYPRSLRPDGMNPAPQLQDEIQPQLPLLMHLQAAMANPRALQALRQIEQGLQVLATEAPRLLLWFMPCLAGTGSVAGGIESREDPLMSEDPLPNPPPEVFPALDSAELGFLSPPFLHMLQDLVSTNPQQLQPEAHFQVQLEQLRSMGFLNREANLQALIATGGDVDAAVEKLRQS
# ubiquilin 2 = target: T9, ubiquilin 2 (human, UniProt Q9UHD9 2-624)
# T9 construct: HuProt array protein, full-length recombinant from yeast; also called UBQLN2
# T9 sequence (Q9UHD9 2-624 limits assumed): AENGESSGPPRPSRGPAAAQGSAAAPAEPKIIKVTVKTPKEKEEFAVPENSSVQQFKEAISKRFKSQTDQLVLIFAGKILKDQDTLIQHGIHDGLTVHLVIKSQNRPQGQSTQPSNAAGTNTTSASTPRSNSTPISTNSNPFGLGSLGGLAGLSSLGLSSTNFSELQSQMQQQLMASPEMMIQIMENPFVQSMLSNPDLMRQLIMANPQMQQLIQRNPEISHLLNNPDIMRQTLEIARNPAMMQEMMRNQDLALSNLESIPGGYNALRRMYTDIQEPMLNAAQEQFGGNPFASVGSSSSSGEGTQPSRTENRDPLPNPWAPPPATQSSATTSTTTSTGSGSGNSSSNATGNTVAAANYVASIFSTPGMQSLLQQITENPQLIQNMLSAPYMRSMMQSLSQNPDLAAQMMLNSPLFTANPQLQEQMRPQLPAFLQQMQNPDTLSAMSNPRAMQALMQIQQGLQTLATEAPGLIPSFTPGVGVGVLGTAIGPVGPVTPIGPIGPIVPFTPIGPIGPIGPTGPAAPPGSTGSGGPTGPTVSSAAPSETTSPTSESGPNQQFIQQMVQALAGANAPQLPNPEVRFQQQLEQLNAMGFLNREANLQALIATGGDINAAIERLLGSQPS
# [7] = target: T10, ubiquilin 1, transcript variant 2 (human, UniProt Q9UMX0 2-589)
# T10 construct: HuProt array protein, full-length recombinant from yeast; also called UBQLN1
# T10 sequence (Q9UMX0 other isoform, or with tags, fused parts or gaps mutant limits assumed): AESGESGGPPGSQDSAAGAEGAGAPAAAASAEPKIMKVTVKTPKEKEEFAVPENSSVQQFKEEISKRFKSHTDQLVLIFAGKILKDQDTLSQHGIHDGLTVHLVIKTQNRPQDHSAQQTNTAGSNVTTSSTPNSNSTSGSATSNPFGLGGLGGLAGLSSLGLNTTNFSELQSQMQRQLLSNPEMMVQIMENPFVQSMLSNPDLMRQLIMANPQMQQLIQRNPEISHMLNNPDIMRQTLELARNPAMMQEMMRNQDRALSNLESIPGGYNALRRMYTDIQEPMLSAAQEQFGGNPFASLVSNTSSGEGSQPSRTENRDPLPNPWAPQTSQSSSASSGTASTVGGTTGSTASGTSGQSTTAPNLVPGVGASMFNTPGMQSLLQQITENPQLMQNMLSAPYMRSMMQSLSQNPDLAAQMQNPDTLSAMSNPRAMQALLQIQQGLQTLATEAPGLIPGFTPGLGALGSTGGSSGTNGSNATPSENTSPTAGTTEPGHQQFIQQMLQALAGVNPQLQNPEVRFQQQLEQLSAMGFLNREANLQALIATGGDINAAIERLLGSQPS
binder,measurement,setting,value
B1,binding result,[1],binds
B2,binding result,[2],binds
B3,binding result,[3],binds
B4,binding result,zinc finger protein 296,binds
same,binding result,[4],binds
B5,binding result,Bcl2 like 1,binds
B6,binding result,[5],binds
same,binding result,[6],binds
B7,binding result,Ubiquilin 3,binds
same,binding result,ubiquilin 2,binds
same,binding result,[7],binds
